From article PMC5854381, “Dynamics of Scabin toxin. A proposal for the binding mode of the DNA substrate”

Experiments:
[1] = test system: NC(=O)c1ccc[n+]([C@@H]2O[C@H](COP(=O)(O)OP(=O)(O)OC[C@H]3O[C@@H](n4cnc5c4ncn4ccnc54)[C@H](O)[C@@H]3O)[C@@H](O)[C@H]2O)c1; assay: purified protein; conditions: pH 7.9
[2] = molecular target: Scabin WT (Streptomyces scabies, UniProt C9Z6T8 26-200); assay: fluorescence anisotropy; no NAD+ mentioned; text labels this WT value N110A [sic]; Anisotropy: 5 uM Cy3-dsDNA, 25 mM Tris-HCl pH 8.2, 100 mM NaCl, 22 C; conditions: protein: recombinant; label: 5' Cy3 on strand 1; blunt

| Molecule | Km [1] | Kd [2] |
| --- | --- | --- |
| (Streptomyces scabiei 87.22) | 68 ± 3 µM |  |
| Cy3-dsDNA 21 bp (dsDNA) DNA 1: GGAAGAGAGAGAGAAAGAGAG DNA 2: CTCTCTTTCTCTCTCTCTTCC |  | 51 ± 4 µM |
